Where “and” joins values, the source holds several entries; their conditions need not be identical. Identical values can stand only once.

B3: Nop58p_447 (truncated Nop58p, residues 1–447) (domain or fragment, Saccharomyces cerevisiae, UniProt Q12499 1-447, looked up)
chain: MAYVLTETSAGYALLKASDKKIYKSSSLIQDLDSSDKVLKEFKIAAFSKFNSAANALEEANSIIEGKVSSQLEKLLEEIKKDKKSTLIVSETKLANAINKLGLNFNVVSDAVTLDIYRAIKEYLPELLPGMSDNDLSKMSLGLAHSIGRHKLKFSADKVDVMIIQAIALLDDLDKELNTYAMRCKEWYGWHFPELAKIVTDSVAYARIILTMGIRSKASETDLSEILPEEIEERVKTAAEVSMGTEITQTDLDNINALAEQIVEFAAYREQLSNYLSARMKAIAPNLTQLVGELVGARLIAHSGSLISLAKSPASTIQILGAEKALFRALKTKHDTPKYGLLYHASLVGQATGKNKGKIARVLAAKAAVSLRYDALAEDRDDSGDIGLESRAKVENRLSQLEGRDLRTTPKVVREAKKVEMTEARAYNADADTAKAASDSESDSDDE
B5: Rvb1/2p complex (tag-free) (complex, Saccharomyces cerevisiae)
chain 1: MVAISEVKENPGVNSSNSGAVTRTAAHTHIKGLGLDESGVAKRVEGGFVGQIEAREACGVIVDLIKAKKMSGRAILLAGGPSTGKTALALAISQELGPKVPFCPLVGSELYSVEVKKTETLMENFRRAIGLRIKETKEVYEGEVTELTPEDAENPLGGYGKTISHVIVGLKSAKGTKTLRLDPTIYESIQREKVSIGDVIYIEANTGAVKRVGRSDAYATEFDLETEEYVPLPKGEVHKKKEIVQDVTLHDLDVANARPQGGQDVISMMGQLLKPKKTEITEKLRQEVNKVVAKYIDQGVAELIPGVLFIDEVNMLDIEIFTYLNKALESNIAPVVVLASNRGMTTVRGTEDVISPHGVPPDLIDRLLIVRTLPYDKDEIRTIIERRATVERLQVESSALDLLATMGTETSLRYALQLLAPCGILAQTSNRKEIVVNDVNEAKLLFLDAKRSTKILETSANYL
chain 2: MSIQTSDPNETSDLKSLSLIAAHSHITGLGLDENLQPRPTSEGMVGQLQARRAAGVILKMVQNGTIAGRAVLVAGPPSTGKTALAMGVSQSLGKDVPFTAIAGSEIFSLELSKTEALTQAFRKSIGIKIKEETELIEGEVVEIQIDRSITGGHKQGKLTIKTTDMETIYELGNKMIDGLTKEKVLAGDVISIDKASGKITKLGRSFARSRDYDAMGADTRFVQCPEGELQKRKTVVHTVSLHEIDVINSRTQGFLALFTGDTGEIRSEVRDQINTKVAEWKEEGKAEIVPGVLFIDEVHMLDIECFSFINRALEDEFAPIVMMATNRGVSKTRGTNYKSPHGLPLDLLDRSIIITTKSYNEQEIKTILSIRAQEEEVELSSDALDLLTKTGVETSLRYSSNLISVAQQIAMKRKNNTVEVEDVKRAYLLFLDSARSVKYVQENESQYIDDQGNVQISIAKSADPDAMDTTE

In series [1] the target is Rvb2p (non-tagged) (Saccharomyces cerevisiae, UniProt Q12464 1-471). The series is described as follows: pull-down.
Series [2] has as its target B5. The series is described as follows: ITC. Background: Isothermal titration calorimetry measures the heat released or taken up as one component is titrated into another.
Series [3] addresses B5. The series is described as follows: label-free quantitative mass spectrometry.
Series [4] has as its target T1, Rvb1p (non-tagged) (Saccharomyces cerevisiae, UniProt Q03940 1-463). The series is described as follows: cross-linking.
Series [5] concerns the target B3. Nature of the series: cross-linking.
Series [6] addresses ScR2TP complex (Rvb1p, Rvb2p, His-Pih1p, Tah1p) (Saccharomyces cerevisiae, UniProt Q03940 1-463; Q12464 1-471; P38768 1-344; P25638 1-111). The series is described as follows: AUC.
Series [7] concerns the target B5. The series is described as follows: AUC.
Series [8] concerns the molecule itself. Nature of the series: AUC.
The target in series [9] is T1, Rvb1p (non-tagged). The series is described as follows: pull-down.

B1: Pih1p-Tah1p complex (His-tagged Pih1p, non-tagged Tah1p) (complex, Saccharomyces cerevisiae)
chain 1: MADFLLRPIKQRHRNEDKYVSVDAADGSVSKIEPIADFVIKTKLLSANGPEKLQDGRKVFINVCHSPLVPKPEVDFNARIVFPLIIQNEWEIPIITSCYRMDHDKKGQECYVWDCCINSDCSRWICDDIQLREILVEWCLESCEIRDSVVLCRDRIAFPKMKKKGAELPALEVLNDELHQDYKAKMHKIIEEEAGDPMSILRGRNDDGDDNNDPDDGTLPPLFPIENKISGAKIEEIDKNEIAHRNLKQAPAPAPAPHEQQEDVPEYEVKMKRFKGAAYKLRILIENKAPNSKPDRFSPSYNFAENILYINGKLSIPLPRDIVVNAADIKIFHIRKERTLYIYI
chain 2: MSQFEKQKEQGNSLFKQGLYREAVHCYDQLITAQPQNPVGYSNKAMALIKLGEYTQAIQMCQQGLRYTSTAEHVAIRSKLQYRLELAQGAVGSVQIPVVEVDELPEGYDRS
Regarding B1, in [1], the binding result is “binds”. In series [2], the “KD of the first of two serial sites (KD^1), apparent” value amounted to 155 nM and the “KD of the second of two serial sites (KD^2), apparent” value was found to be 1200 nM. Moreover, the stoichiometry N (as a rule, a count of units in the complex or per binding partner) in series [3] is 1.6 Pih1p per 3 Rvb1p and 3 Rvb2p and 0.5 Tah1p per 3 Rvb1p.

B2: Pih1p (His-tagged) (natural protein, Saccharomyces cerevisiae, UniProt P38768 1-344, looked up)
chain: MADFLLRPIKQRHRNEDKYVSVDAADGSVSKIEPIADFVIKTKLLSANGPEKLQDGRKVFINVCHSPLVPKPEVDFNARIVFPLIIQNEWEIPIITSCYRMDHDKKGQECYVWDCCINSDCSRWICDDIQLREILVEWCLESCEIRDSVVLCRDRIAFPKMKKKGAELPALEVLNDELHQDYKAKMHKIIEEEAGDPMSILRGRNDDGDDNNDPDDGTLPPLFPIENKISGAKIEEIDKNEIAHRNLKQAPAPAPAPHEQQEDVPEYEVKMKRFKGAAYKLRILIENKAPNSKPDRFSPSYNFAENILYINGKLSIPLPRDIVVNAADIKIFHIRKERTLYIYI
Turning to B2, the binding result in [4] and in [5] was “binds” throughout.

Turning to B3, the binding result in [6] is reported as “binds”.

B4: Pih1p 1–284 fragment (domain or fragment, Saccharomyces cerevisiae, UniProt P38768 1-284, looked up)
chain: MADFLLRPIKQRHRNEDKYVSVDAADGSVSKIEPIADFVIKTKLLSANGPEKLQDGRKVFINVCHSPLVPKPEVDFNARIVFPLIIQNEWEIPIITSCYRMDHDKKGQECYVWDCCINSDCSRWICDDIQLREILVEWCLESCEIRDSVVLCRDRIAFPKMKKKGAELPALEVLNDELHQDYKAKMHKIIEEEAGDPMSILRGRNDDGDDNNDPDDGTLPPLFPIENKISGAKIEEIDKNEIAHRNLKQAPAPAPAPHEQQEDVPEYEVKMKRFKGAAYKLRIL
Take B4: in series [7], the binding result is “binds”. With B5, the binding result in series [8] is “binds”.

B6: DII-truncated Rvb2p (deleting residues 134–234) (natural protein, Saccharomyces cerevisiae, UniProt Q12464 1-471, looked up)
chain: MSIQTSDPNETSDLKSLSLIAAHSHITGLGLDENLQPRPTSEGMVGQLQARRAAGVILKMVQNGTIAGRAVLVAGPPSTGKTALAMGVSQSLGKDVPFTAIAGSEIFSLELSKTEALTQAFRKSIGIKIKEETVVHTVSLHEIDVINSRTQGFLALFTGDTGEIRSEVRDQINTKVAEWKEEGKAEIVPGVLFIDEVHMLDIECFSFINRALEDEFAPIVMMATNRGVSKTRGTNYKSPHGLPLDLLDRSIIITTKSYNEQEIKTILSIRAQEEEVELSSDALDLLTKTGVETSLRYSSNLISVAQQIAMKRKNNTVEVEDVKRAYLLFLDSARSVKYVQENESQYIDDQGNVQISIAKSADPDAMDTTE
For the molecule B6, the binding result in series [9] is recorded as “binds”.

(Values after PMC6625358 (Structure (London, England : 1993), 2017).)
